In the supplement of paper PMC10126150:
± gives the standard deviation of the averaged measurements.

System: ATP
Experiment: switch fluorescence ratio, 500 uM ATP over buffer (Cy3 cluster intensity, sum of 5 cycles each) (fold (ratio)); higher = stronger signal-on switching upon ATP binding; sequences stand for … in TCGTCGGCAGCGTCAGATGTGTATAAGAGACAGTTTTTTTTTTTTTTTTTTTTTTTTT…TC
Conditions: aptamer strand: ATP DNA aptamer (quencher-CACCTGGGGGAGTATTGCGGAGGAAGG + anchor), 100 nM annealed; ATP concentration: 500 uM
Outline: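 The fluorescence ratio divides summed target-cycle Cy3 intensity by summed buffer-cycle Cy3 intensity for each cluster and is averaged per switch-domain sequence. Cy3-labelled switching-strand clusters on a modified Illumina MiSeq flow-cell were annealed to 100 nM quencher-labelled ATP aptamer, then imaged in selection buffer and again after 15 min with 500 uM ATP at 22 °C. Five such cycles were run, with NaOH stripping and re-annealing between them, and clusters outside 100-1000 RFU were excluded.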
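Further: ATP exposure 15 min at 22 °C before imaging.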

Sequence	switch fluorescence ratio
GGTATTAGTG	1.01 ± 0.021
CGACGGATTT	1.12 ± 0.029
TAAAGAAAGC	0.9755 ± 0.0029
GAGGCTGGGC	0.973 ± 0.053
TTGGAAAGGG	0.985 ± 0.016
GTGAGTTGGG	1.01 ± 0.014
GATATATGCT	1 ± 0.013
AGGTCGGCTT	1.006 ± 0.0024
AGGTTGCGAT	1.01 ± 0.013
AAATGCGTTT	0.979 ± 0.019
TTTCAAAAAT	1.01 ± 0.044
GTAGCATGCC	1.32 ± 0.088
TCGGTATATA	1.03 ± 0.033
GTCAATGGGA	1 ± 0.029
TAATTTCCTT	1.06 ± 0.16
CAAAGAGGCG	1.02 ± 0.057
CCAGATGGCA	1.02 ± 0.082
GTTTGTACCG	1 ± 0.051
TTCTTACTGG	0.995 ± 0.021
ATGGCAGGCA	0.9929 ± 0.0054
GGCAGACGGT	1.006 ± 0.0016
ACCATGCGTT	0.992 ± 0.03
ATAGTTATGG	0.992 ± 0.011
ATTAAAAGTG	0.986 ± 0.013
ATTCAGATCG	0.999 ± 0.034

Sequence	switch fluorescence ratio
GCGTGCAGGC	1.03 ± 0.023
TTTTACCCTT	1.04 ± 0.04
TACTTGTTAT	0.989 ± 0.034
GAATTCGGAA	1.0486 ± 0.00049
GGGGAGTTTG	1.01 ± 0.064
GGTTTGATAT	0.972 ± 0.013
TATGGCTCTA	0.9731 ± 0.00019
GATTAACCTA	1.013 ± 0.003
CAGGGGGGGG	1.01 ± 0.031
TATCCAGGGA	1.026 ± 0.0046
CATTGGAGGA	1.018 ± 0.0011
AGAGGGGGTT	0.971 ± 0.035
ACAATTAAGC	1.04 ± 0.028
GGGCAATGAG	1.09 ± 0.023
AAGGTTTCAG	0.9758 ± 0.0079
GTGTGAAAAC	1.02 ± 0.02
CGGTTGCTAG	0.997 ± 0.042
AAAAATTAAA	1.002 ± 0.0018
GAAAAATTAA	0.993 ± 0.026
ACGGCATTTG	1.05 ± 0.024
GCTTTCATTT	1.013 ± 0.0049
CCGGGGAACA	1.004 ± 0.0069
CCCACCGTTG	1.17 ± 0.03
AGGCGTGTCA	1.004 ± 0.0083
GGGAGGCATG	0.936 ± 0.13

Sequence	switch fluorescence ratio
AGGGTGTGTC	1.007 ± 0.0098
CGGGGTGCCG	0.98847 ± 0.00081
TACATGGACC	1.12 ± 0.025
TAGGGTGAGT	1.02 ± 0.035
TTTGTCTGAC	0.9946 ± 0.0028
GAAAAGGGGT	1 ± 0.028
GAGCCAGATT	1.0095 ± 0.00059
AATGGGGTCT	1.01 ± 0.047
GTGAGGGAAC	0.9729 ± 0.0052
ACTTGAACGG	1.16 ± 0.034
GGGTGGCCTG	1.03 ± 0.077
TTAGGGGACG	0.981 ± 0.04
ACGTTAGGGA	1.07 ± 0.091
TGAGGGCGAA	0.984 ± 0.01
TAGTTTATTT	1 ± 0.015
TTGTTCGGGA	1.016 ± 0.0094
TTAAGGCGTT	0.9791 ± 0.0071
TTTGGTAGCT	0.9596 ± 0.0037
TAGTTGGTTG	0.974 ± 0.027
GGGGTAGGTT	1.02 ± 0.053
TAAGAAATGT	1.04 ± 0.04
GGGGTACCAC	1.31 ± 0.4
GGTTTTGTCA	1.01 ± 0.019
GGATATGGTT	0.987 ± 0.034
TGTTGAGGGG	0.964 ± 0.041

Sequence	switch fluorescence ratio
TTTTGCGCAA	0.9922 ± 0.0048
GCGAACAACT	1.014 ± 0.0087
AGGGGGGAAC	1.01 ± 0.024
AACAGTCGCG	0.968 ± 0.024
TTGGCGTATT	1.01 ± 0.071
GAAAAGCAGG	0.989 ± 0.025
TGTTGTCTTG	0.98616 ± 6.6e-05
TACGGTTTGG	0.988 ± 0.056
GATAGGGGAA	0.978 ± 0.022
GGGGGTGGCG	0.973 ± 0.021
ATCGATGAGC	1.006 ± 0.004
GCTTTGGAAG	0.985 ± 0.034
GGGCATAGAT	1.03 ± 0.05
TAGGCGAGTT	0.98 ± 0.0021
TCATGGTCCC	1.02 ± 0.018
TTGTTTTATG	0.998 ± 0.022
TGGTGCGCCC	1.033 ± 0.0058
GGATTGGTAA	0.9919 ± 0.00028
AGAGAAGATG	1.01 ± 0.034
CCGTTTTTAT	1.01 ± 0.018
TTCGGGGTCG	0.985 ± 0.072
TTGGAAAGGT	1.1 ± 0.16
TTGTTTGTAA	1.04 ± 0.018
GAAAAAGTGA	0.975 ± 0.054
TATTTTGGAG	0.985 ± 0.035
